Experimental data published in the supplement of paper PMC10724198.
± gives the standard deviation of the averaged measurements.

Tested on: Saccharomyces cerevisiae
Assay: protein stability index of tFT-peptide fusion (C-terminal peptide) (PSI (0-1 scale)); higher = more stable (slower turnover)
Settings: genetic background: wild type; temperature: 30 C
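Further: PSI is a weighted mean of sequencing reads over stability bins, variants kept only with over 10 reads, mCherry proximal and sfGFP distal, peptide attached via GGGS linker.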

Sequence | protein stability index
PPCHPPPTTSEK | 0.677 ± 0.032
PPDTPRTQKADT | 0.755 ± 0.029
PPELHTIRARQI | 0.58 ± 0.082
PPFASSPPFIFL | 0.705 ± 0.062
PPFLTTYPHLAP | 0.71 ± 0.031
PPFPLSPLPPPL | 0.71 ± 0.0047
PPFPPLPSPFTS | 0.708 ± 0.018
PPFRSPPRHDPL | 0.662 ± 0.015
PPGLPPIRCPPT | 0.631 ± 0.037
PPGPPRPPPRTP | 0.689 ± 0.0036
PPGSPPSLPPLP | 0.711 ± 0.057
PPHASRAPPFPR | 0.671 ± 0.047
PPHLPPSLSVLP | 0.663 ± 0.057
PPHPLLSPPPFP | 0.821 ± 0.088
PPHPPPPATPCP | 0.682 ± 0.013
PPHPPPPFPPPP | 0.744 ± 0.015
PPHPPPTTVHLA | 0.7052 ± 0.002
PPHPSTPIPPPR | 0.672 ± 0.012
PPHPTPRTLPSP | 0.691 ± 0.0027
PPHSHRSRHPPP | 0.688 ± 0.061
PPHTLTSTIRPN | 0.73 ± 0.019

Sequence | protein stability index
PPILRPAKSAQG | 0.705 ± 0.024
PPIPPPPPLPPP | 0.621 ± 0.023
PPIPSLPPASFP | 0.69 ± 0.044
PPLGPRALPSPA | 0.67 ± 0.038
PPLGPRARPPPR | 0.734 ± 0.024
PPLLPPPSPPPP | 0.684 ± 0.04
PPLPLPPPLLPP | 0.659 ± 0.059
PPLPPAPLPLPT | 0.639 ± 0.051
PPLPPLLFRSPP | 0.687 ± 0.017
PPLPPLPVPPTL | 0.738 ± 0.11
PPLPPPAPSFPT | 0.684 ± 0.06
PPLPPPQDPRLP | 0.7 ± 0.097
PPLPPPRYLPPT | 0.7124 ± 0.0027
PPLPPSPLPLPP | 0.664 ± 0.023
PPLPPSPPFPPP | 0.653 ± 0.015
PPLPSAPSTYPA | 0.634 ± 0.012
PPLPSMVLQRIY | 0.589 ± 0.0065
PPLQFFLYRSWV | 0.664 ± 0.044
PPLRPAPPPPLS | 0.7 ± 0.12
PPLSAPPPSPSP | 0.702 ± 0.065
PPLSGNLPCFRF | 0.713 ± 0.03

Sequence | protein stability index
PPLSPPLPPPPS | 0.7188 ± 0.0062
PPLSPPPPPPVP | 0.688 ± 0.066
PPLTHPPPPLYL | 0.694 ± 0.008
PPMALPELPLFP | 0.738 ± 0.071
PPNLLPRPPPRG | 0.559 ± 0.047
PPPALPPPPFPP | 0.591 ± 0.011
PPPALPPPPRPP | 0.604 ± 0.065
PPPAPPPLAPPL | 0.713 ± 0.0086
PPPAPPPPPSSR | 0.667 ± 0.007
PPPAPQTATPHR | 0.714 ± 0.022
PPPCPPPPLSRP | 0.666 ± 0.058
PPPCRPSQFPPL | 0.742 ± 0.015
PPPCSFTRKRQR | 0.664 ± 0.014
PPPDKTPERRPC | 0.644 ± 0.054
PPPFPPPPARSL | 0.474 ± 0.043
PPPFRFPALLPP | 0.6778 ± 0.0007
PPPFSPLPLPPS | 0.71 ± 0.044
PPPGPPLPPGLP | 0.749 ± 0.033
PPPGSPLRPSRL | 0.748 ± 0.12
PPPHLPPPPPTQ | 0.658 ± 0.059
PPPHPALPHPLH | 0.682 ± 0.01

Sequence | protein stability index
PPPHTRVIPSSP | 0.6763 ± 0.0052
PPPLCLHAPFPP | 0.626 ± 0.045
PPPLDSPPPPPP | 0.664 ± 0.019
PPPLLPVPQPLF | 0.672 ± 0.087
PPPLLSPLSPPP | 0.571
PPPLPAAHFSTP | 0.663 ± 0.022
PPPLPPPPHGVP | 0.6889 ± 0.0066
PPPLPPPPPTRP | 0.616 ± 0.063
PPPLPPSPPHHP | 0.689 ± 0.04
PPPLPRPRSTAL | 0.674 ± 0.043
PPPLTVPLLSPP | 0.662 ± 0.046
PPPLVPPPPSSL | 0.731 ± 0.011
PPPNPPATTTTP | 0.6685 ± 0.0012
PPPPALLPPPPA | 0.781 ± 0.27
PPPPAPPLPPPP | 0.707 ± 0.039
PPPPFWPLSPAL | 0.713 ± 0.039
PPPPGCLPRPAS | 0.699 ± 0.021
PPPPHPPSPSLP | 0.664 ± 0.1
